Target: human CD4 on the membrane surface of DG44 #3 cells (human, UniProt P01730)
Assay: FACS on DG44 #3 cells (CHO cells transfected with human CD4 cDNA)

B1: HIV-1 gp120LAI (ligand)
chain: not shown
binding result: binds

From patent US5886163, “HIV-1 antigens, antibody compositions related thereto, and therapeutic and prophylactic uses thereof” (Progenics Pharmaceuticals, Inc., dated 1999)
